{"source": "paper PMC10163214", "about": "“E. coli allantoinase is activated by the downstream metabolic enzyme, glycerate kinase, and stabilizes the putative allantoin transporter by direct binding” (Scientific Reports, 2023)", "molecules": {"B1": {"name": "AllB (allantoinase; AllB_Zn, AllB_Mn) (Escherichia coli K-12) (protein)", "chain": "MSFDLIIKNGTVILENEARVVDIAVKGGKIAAIGQDLGDAKEVMDASGLVVSPGMVDAHTHISEPGRSHWEGYETGTRAAAKGGITTMIEMPLNQLPATVDRASIELKFDAAKGKLTIDAAQLGGLVSYNIDRLHELDEVGVVGFKCFVATCGDRGIDNDFRDVNDWQFFKGAQKLGELGQPVLVHCENALICDELGEEAKREGRVTAHDYVASRPVFTEVEAIRRVLYLAKVAGCRLHVCHVSSPEGVEEVTRARQEGQDVTCESCPHYFVLDTDQFEEIGTLAKCSPPIRDLENQKGMWEKLFNGEIDCLVSDHSPCPPEMKAGNIMKAWGGIAGLQSCMDVMFDEAVQKRGMSLPMFGKLMATNAADIFGLQQKGRIAPGKDADFVFIQPNSSYVLTNDDLEYRHKVSPYVGRTIGARITKTILRGDVIYDIEQGFPVAPKGQFILKHQQ", "notes": "full length; expressed in E. coli; tetrameric"}, "B2": {"name": "GlxK (glycerate 2-kinase) (Escherichia coli K-12) (protein)", "chain": "MKIVIAPDSFKESLSAEKCCQAIKAGFSTLFPDANYICLPIADGGEGTVDAMVAATGGNIVTLEVCGPMGEKVNAFYGLTGDGKTAVIEMAAASGLMLVAPEKRNPLLASSFGTGELIRHALDNDIRHIILGIGGSATVDGGMGMAQALGVRFLDADGQALAANGGNLARVASIEMDECDPRLANCHIEVACDVDNPLVGARGAAAVFGPQKGATPEMVEELEQGLQNYARVLQQQTEINVCQMAGGGAAGGMGIAAAVFLNADIKPGIEIVLNAVNLAQAVQGAALVITGEGRIDSQTAGGKAPLGVASVAKQFNVPVIGIAGVLGDGVEVVHQYGIDAVFSILPRLAPLAEVLASGETNLFNSARNIACAIKIGQGIKN", "notes": "full length, N-terminal His6 tag, expressed in E. coli; GlxK-His 41 kDa"}}, "key": {"AllW (YbbW)": {"target": "T1, AllW (YbbW) (Escherichia coli, UniProt P75712)", "T1 construct": "native chromosomal AllW in delta-allC cells, stabilised by AllB; compared with allW and allB deletion strains; with Allantoinase", "T1 sequence (P75712 whole entry)": "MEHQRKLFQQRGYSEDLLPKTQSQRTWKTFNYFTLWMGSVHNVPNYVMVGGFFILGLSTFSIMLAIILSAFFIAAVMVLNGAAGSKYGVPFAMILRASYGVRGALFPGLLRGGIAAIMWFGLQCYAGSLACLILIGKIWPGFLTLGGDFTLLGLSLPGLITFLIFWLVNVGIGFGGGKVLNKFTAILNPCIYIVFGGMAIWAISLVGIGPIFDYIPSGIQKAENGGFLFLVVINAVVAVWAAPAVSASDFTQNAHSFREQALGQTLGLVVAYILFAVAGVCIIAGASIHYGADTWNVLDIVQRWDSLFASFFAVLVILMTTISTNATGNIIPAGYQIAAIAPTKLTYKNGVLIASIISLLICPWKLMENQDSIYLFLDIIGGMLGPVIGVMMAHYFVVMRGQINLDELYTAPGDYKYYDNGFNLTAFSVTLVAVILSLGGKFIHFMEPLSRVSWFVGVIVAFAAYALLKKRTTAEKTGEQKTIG", "test": "cellular allantoin uptake by GC-MS", "type": "cell-based", "details": "1 mM allantoin, PBS with glucose, delta-allC cells; uptake lost in allW or allB deletion"}, "[1]": {"target": "T2, AllB (allantoinase; AllB_Zn, AllB_Mn) (Escherichia coli, UniProt P77671)", "T2 construct": "full length; expressed in E. coli; tetrameric", "T2 sequence (P77671 1-453)": "B1 chain", "test": "absorbance of allantoate at […] nm", "type": "biochemical", "details": "0.1 mM ZnSO4, no GlxK, no glyoxylate, pH 8.0"}, "purified protein [2]": {"substrate": "NC(=O)NC1NC(=O)NC1=O", "test": "purified protein", "type": "biochemical, Escherichia coli", "details": "AllB_Mn, 0.2 mM MnSO4, no GlxK, 0.9 mM glyoxylate present, pH 8.0, 37 °C"}, "purified protein [3]": {"substrate": "O=C(O)[C@H](O)CO", "test": "purified protein", "type": "biochemical, Escherichia coli", "details": "10 mM MgSO4, 1.2 mM ATP, pH 7.4, 37 °C"}}, "data": [{"molecule": "NC(=O)NC1NC(=O)NC1=O", "note": "(stereo not drawn) [allantoin]", "values": [{"measurement": "cellular allantoin uptake by GC-MS", "setting": "AllW (YbbW)", "result": "no allantoin uptake was detected in either the AW12 (ΔallC–ΔallB) or the AW13 (ΔallC–ΔallW) mutant"}, {"measurement": "Km", "setting": "[1]", "result": "> 15", "unit": "mM"}]}, {"molecule": "B1", "values": [{"measurement": "Km", "setting": "purified protein [2]", "result": "5.8 ± 1.2", "unit": "mM"}, {"measurement": "Vmax", "setting": "purified protein [2]", "result": "246 ± 32", "unit": "U/mg protein"}]}, {"molecule": "B2", "values": [{"measurement": "Km", "setting": "purified protein [3]", "result": "0.085 ± 0.009", "unit": "mM"}, {"measurement": "Vmax", "setting": "purified protein [3]", "result": "4.6 ± 0.3", "unit": "U/mg protein"}]}]}
